In article PMC10903754, “o-Vanillin binds covalently to MAL/TIRAP Lys-210 but independently inhibits TLR2” (Journal of Enzyme Inhibition and Medicinal Chemistry, 2024):

Target: the molecule itself
Assay: turbidity assay; MAL^TIR ~87.5-103 uM in 10 mM HEPES pH 7.5, 150 mM NaCl, 30 °C; filament formation followed by absorbance at 500 nm over time; with or without o-vanillin and analogues

B1: TIR domain of human MAL/TIRAP (MAL^TIR), residues 79-221 (domain or fragment, UniProt P58753 79-221, looked up)
chain: SSRWSKDYDVCVCHSEEDLVAAQDLVSYLEGSTASLRCFLQLRDATPGGAIVSELCQALSSSHCRVLLITPGFLQDPWCKYQMLQALTEAPGAEGCTIPLLSGLSRAAYPPELRFMYYVDGRGPDGGFRQVKEAVMRYLQTLS
notes: MAL (MyD88 adaptor-like protein; TIRAP), human, TIR domain, residues 79-221; construct in the vector pMCSG7; For the NMR work the same construct was 13C-15N labelled and kept in low-salt buffer (10 mM HEPES pH 7.5, 10 mM NaCl); also called WT MAL^TIR; MyD88 adaptor-like protein TIR domain; source: E. coli BL21 (DE3), purified (Ni IMAC, TEV cleavage, SEC Superdex 75)
B1: binds.
